Assay results from patent US20190367612A1 (Daiichi Sankyo, published 2019).
One block for each binder: values may come before it.

Key:
human GPRC5D [1] = target: T1, human GPRC5D (human, UniProt Q9NZD1 1-345); test: flow cytometry on KHM-1B cells (human GPRC5D), culture supernatant, PE anti-human IgG Fc, rMFI over human IgG isotype control
T1 construct: whole, on cells; also called hGPRC5D; G-protein coupled receptor family C group 5 member D
Experimental: Human multiple myeloma cell line KHM-1B cells expressing GPRC5D were adjusted to a concentration of 2×10⁶ cells/mL with PBS containing 5% FBS, inoculated in an amount of 100 μL/well to a 96-well U-bottomed microplate, and centrifuged to remove a supernatant. The culture supernatant of each humanized anti-GPRC5D antibody obtained in Example 8)-3-1 or Human IgG isotype control antibody (Calbiochem/Merck Millipore Corp.) adjusted to 14 ng/mL to 30 μg/mL was added thereto in an amount of 100 μL/well, and the plate was left standing at 4° C. for 1 hour. The cells were washed twice with PBS containing 5% FBS. Then, R-Phycoerythrin AffiniPure F(ab′)2 Fragment Goat Anti-Human IgG, Fcγ Fragment Specific (Jackson ImmunoResearch Laboratories, Inc.) diluted 100-fold with PBS containing 5% FBS was added thereto in an amount of 100 μL/well, and the plate was left standing at 4° C. for 1 hour. The cells were washed twice with PBS containing 5% FBS and then resuspended in PBS containing 5% FBS, followed by detection using a flow cytometer (FACSCanto™ II; Becton, Dickinson and Company). The data was analyzed using Flowjo (Tree Star, Inc.). The PE fluorescence intensity of the cell fraction was plotted to a histogram, and the mean fluorescence intensity (MFI) was calculated. The MFI value of the control antibody was subtracted from the MFI value of the GPRC5D antibody to calculate a relative value of MFI (rMFI).

cynomolgus monkey GPRC5D = target: T2, cynomolgus monkey GPRC5D (cynomolgus monkey); test: flow cytometry on KMS-11_cGPRC5D cells (cynomolgus monkey GPRC5D), PE anti-human IgG Fc detection, rMFI = MFI minus isotype control [label at the foot of D00092]
T2 construct: whole, on cells; Stably expressed on KMS-11 cells (KMS-11_cGPRC5D); also called cGPRC5D

cynomolgus monkey CD3 = target: T3, cynomolgus monkey CD3 (cynomolgus monkey, UniProt Q95LI5 22-198); test: flow cytometry on cynomolgus monkey PBMC, Penta-His Alexa Fluor 488 detection, rMFI = MFI minus sample without antibody
T3 construct: whole, on cells; CD3 complex on cynomolgus monkey PBMC; also called cynomolgus monkey CD3 (PBMC); cynomolgus monkey CD3-expressing cells

human GPRC5D [2] = target: T1, human GPRC5D; test: flow cytometry on A4/Fuk cells (endogenous human GPRC5D), Penta-His Alexa Fluor 488 detection, rMFI = MFI minus sample without antibody
Experimental: Lymphoma cell line A4/Fuk cells (JCRB Cell Bank) were adjusted to an appropriate concentration with PBS containing 5% FBS. LIVE/DEAD Fixable Near-IR Dead Cell Stain Kit was added to the cells, which were then left standing at 4° C. for 30 minutes. The cells were washed twice with PBS containing 5% FBS, then adjusted to a concentration of 1×10⁶ cells/mL with PBS containing 5% FBS, inoculated in an amount of 100 μL/well to a 96-well U-bottomed microplate, and centrifuged to remove a supernatant. Each anti-GPRC5D-anti-CD3 bispecific molecule (C2037-C3E7034 to C3022-C3E7036 prepared in Example 12) diluted with PBS containing 5% FBS were added thereto in an amount of 100 μL/well, and the plate was left standing at 4° C. for 60 minutes. The cells were washed twice with PBS containing 5% FBS. Then, Penta-His Alexa Fluor 488 diluted with PBS containing 5% FBS was added thereto in an amount of 30 μL/well, and the plate was left standing at 4° C. for 30 minutes. The cells were washed twice with PBS containing 5% FBS and then resuspended in PBS containing 5% FBS, followed by detection using a flow cytometer (FACSCanto™ II). The data was analyzed using Flowjo. The mean fluorescence intensity (MFI) of Alexa Fluor 488 in a fraction free from dead cells was calculated. The MFI value of the antibody-unsupplemented sample was subtracted from the MFI value of the antibody-supplemented sample to calculate a relative value of MFI (rMFI).

human CD3 = target: T4, human CD3 (human, UniProt P07766 23-207); test: flow cytometry on human PBMC (dead and CD19-positive cells excluded), Penta-His Alexa Fluor 488 detection, rMFI = MFI minus sample without antibody
T4 construct: CD3 complex on human PBMC; also called human CD3 (PBMC); human CD3-expressing cells
Experimental: Commercially available human PBMC (Cellular Technology Limited) was adjusted to an appropriate concentration with PBS containing 5% FBS. LIVE/DEAD Fixable Near-IR Dead Cell Stain Kit (Thermo Fisher Scientific Inc.) and an anti-CD19 antibody (Beckman Coulter Inc.) were added to the cells, which were then left standing at 4° C. for 30 minutes. The cells were washed twice with PBS containing 5% FBS, then adjusted to a concentration of 1×10⁶ cells/mL with PBS containing 5% FBS, inoculated in an amount of 100 μL/well to a 96-well U-bottomed microplate, and centrifuged to remove a supernatant. Each anti-GPRC5D-anti-CD3 bispecific molecule (C2037-C3E7034 to C3022-C3E7036 prepared in Example 12) diluted with PBS containing 5% FBS were added thereto in an amount of 100 μL/well, and the plate was left standing at 4° C. for 60 minutes. The cells were washed twice with PBS containing 5% FBS. Then, Penta-His Alexa Fluor 488 (Qiagen N.V.) diluted with PBS containing 5% FBS was added thereto in an amount of 30 μL/well, and the plate was left standing at 4° C. for 30 minutes. […] The data was analyzed using Flowjo (Tree Star, Inc.). The mean fluorescence intensity (MFI) of Alexa Fluor 488 in a fraction free from dead cells and CD19-positive cells was calculated. […]

mouse GPRC5D = target: T5, mouse GPRC5D (mouse, UniProt Q9JIL6 1-344); test: flow cytometry, in the same way as in Example 5)-2
T5 construct: whole, on cells
T5 sequence (looked up): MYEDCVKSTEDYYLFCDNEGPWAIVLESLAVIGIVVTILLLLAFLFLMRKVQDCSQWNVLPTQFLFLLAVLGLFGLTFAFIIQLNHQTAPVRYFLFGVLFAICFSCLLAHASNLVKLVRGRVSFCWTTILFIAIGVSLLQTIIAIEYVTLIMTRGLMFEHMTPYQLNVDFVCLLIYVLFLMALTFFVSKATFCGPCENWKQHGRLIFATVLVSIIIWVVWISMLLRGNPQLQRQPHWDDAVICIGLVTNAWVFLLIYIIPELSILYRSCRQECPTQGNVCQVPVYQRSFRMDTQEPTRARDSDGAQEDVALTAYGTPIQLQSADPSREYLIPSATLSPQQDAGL

human GPRC5D [3] = target: T1, human GPRC5D; test: flow cytometry on KHM-1B cells (human GPRC5D), PE anti-human IgG Fc, rMFI over human IgG isotype control

T4 sequence (P07766 23-207 limits assumed): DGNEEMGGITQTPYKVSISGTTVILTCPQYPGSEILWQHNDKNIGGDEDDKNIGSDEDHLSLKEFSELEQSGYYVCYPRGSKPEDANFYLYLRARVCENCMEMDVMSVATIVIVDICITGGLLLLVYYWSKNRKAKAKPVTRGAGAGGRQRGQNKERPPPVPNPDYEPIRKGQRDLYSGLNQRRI
T3 sequence (Q95LI5 22-198): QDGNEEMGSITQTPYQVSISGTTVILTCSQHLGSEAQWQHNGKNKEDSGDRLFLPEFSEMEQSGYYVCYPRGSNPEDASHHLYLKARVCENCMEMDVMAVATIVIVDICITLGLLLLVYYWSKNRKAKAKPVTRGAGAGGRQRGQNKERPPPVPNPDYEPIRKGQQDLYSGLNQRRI

- binding result (human GPRC5D [1]): binds
- EC50 (read off the curve) (cynomolgus monkey GPRC5D): ~4 nM
B1: humanized anti-GPRC5D antibody h2B1_H1/L2 (antibody, human IgG1, kappa, V domains shown)
VH: QVQLVESGGGLVKPSQTLSLTCTFSGFSLNTYDMGVGWIRQPPGKGLEWIGNIWWDDDKYYNPSLKSRVTISVDTSKNQASLKLSSVTAADTAVYYCARIETVRVSRKGFAHWGQGTLVTVSS
VL: DTVMTQSPDSLAVSLGERATINCKASQSVGINVDWYQQKPGQPPKLLIYGASNRHTGVPDRFSGSGFGTDFTLTISSLQAEDVAVYYCLQHGSIPPTFGQGTKVEIKR
notes: Human IgG1 / kappa

- EC50 (read off the curve) (cynomolgus monkey CD3): ~20 nM
- binding result (human GPRC5D [2]): binds
- EC50 (read off the curve) (human CD3): ~0.3 nM
B2: anti-GPRC5D-anti-CD3 bispecific molecule C3022-C3E7034 (bispecific antibody)
scFv: GQVQLVQSGAEVKKPGASVKVSCKASGYTFTGYYMHWVRQAPGQGLEWMGRINPNSGGTNYAQKFQGRVTMTRDTSISTAYMELSGLRSDDTAVYYCASGSVRHPWGQGTLVTVSSGGGGSGGGGSGGGGSQPVLTQPPSASGTPGQRVTISCSGSRSNIGGNIVSWYQQFPGTAPRLLTYADNQRPSGVPDRFSGSKSGTSASLAISGLQSEDEADYYCAAWDDSLNGVVFGGGTKLTVLGGGGSEVQLVESGGGLVQPGGSLRLSCAASGVTFNYYGMSWIRQAPGKGLEWVASITNSGGRIYYPDSVKGRFTISRENTQKTLYLQMNSLRAEDTAVYYCTLDGRDGWVAYWGQGTLVTVSSGGGGSGGGGSGGGGSNFMLTQPHSVSESPGKTVTISCKRNTGNIGSNYVNWYQQHEGSSPTTIIYRDDKRPDGVSDRFSGSIDRSSKSASLTISNLKTEDEADYFCQSYSSGFIFGGGTKLTVLGAAAGAGGDYKDDDDKGAAAHHHHHH
notes: Tandem scFv

- binding result (mouse GPRC5D): no binding
- EC50 (read off the curve) (human GPRC5D [3]): ~10 nM
B3: human chimeric 2B1 (antibody, human IgG1, V domains shown)
VH: QVTLKESGPGILQPSQTLSLTCTFSGFSLNTYDMGVGWIRQPSGKGLEWLANIWWDDDKYYNPSLRNRLTISKDTSNNQAFLKITNVDTADTATYYCARIETVRVSRKGFAHWGQGTLVTVSS
VL: ETVMTQSPTSMSTSIGERVTLNCKASQSVGINVDWYQQTPGQSPKLLIYGASNRHTGVPDRFTGSGFGRDFTLTISNVEAEDLAVYYCLQHGSIPPTFGGGTKLELKR
notes: Human IgG1 / kappa constant regions
